Reference: patent CN113444180A (SHANGHAI SINOBAY BIO TECH CO LTD, dated 2021)

Tests used:
[1] = target: T1, AXL on CHO-AXL细胞 (human, UniProt P30530 26-894); experiment: flow cytometry on CHO-AXL cells, pH6.0 against pH7.4
T1 construct: whole, on cells; the cell line itself is only called CHO-AXL
T1 sequence (looked up): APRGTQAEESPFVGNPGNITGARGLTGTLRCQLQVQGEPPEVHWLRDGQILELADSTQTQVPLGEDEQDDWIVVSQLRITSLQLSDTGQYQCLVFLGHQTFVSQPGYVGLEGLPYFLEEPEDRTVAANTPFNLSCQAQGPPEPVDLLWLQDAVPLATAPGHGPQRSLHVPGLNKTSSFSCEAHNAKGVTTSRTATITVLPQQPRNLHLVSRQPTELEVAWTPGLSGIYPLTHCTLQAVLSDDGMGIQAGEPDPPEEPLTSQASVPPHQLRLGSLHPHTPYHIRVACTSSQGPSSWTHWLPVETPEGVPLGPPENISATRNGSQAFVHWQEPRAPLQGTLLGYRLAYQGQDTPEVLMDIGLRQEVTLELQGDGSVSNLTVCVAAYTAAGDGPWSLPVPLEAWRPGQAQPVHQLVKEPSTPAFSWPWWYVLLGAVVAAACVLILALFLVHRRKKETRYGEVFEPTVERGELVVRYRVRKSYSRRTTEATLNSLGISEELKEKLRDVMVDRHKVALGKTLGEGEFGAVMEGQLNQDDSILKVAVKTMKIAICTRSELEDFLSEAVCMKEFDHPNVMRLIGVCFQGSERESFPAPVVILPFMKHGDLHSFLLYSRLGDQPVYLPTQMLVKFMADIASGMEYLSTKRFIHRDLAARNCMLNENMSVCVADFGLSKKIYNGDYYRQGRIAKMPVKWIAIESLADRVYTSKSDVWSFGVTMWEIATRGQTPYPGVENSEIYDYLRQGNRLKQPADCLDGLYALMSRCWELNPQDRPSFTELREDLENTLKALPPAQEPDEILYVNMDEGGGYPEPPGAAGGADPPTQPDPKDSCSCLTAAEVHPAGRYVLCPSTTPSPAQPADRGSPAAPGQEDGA

[2] = target: T1, AXL on CHO-AXL细胞; experiment: flow cytometry on CHO-AXL cells, acidic condition pH6.0, reference CCT301-38

B1: Hu001-11抗体 (full-length human IgG1 kappa) (antibody, V domains shown)
VH: QVQLLESGGGVVQPGRSLRLSCAASGFTFSSYGMHWVRQAPGKGLEWVAVISYDGSNKYYADSVKGRFTISRDNSKNTLYLQMNSLRAEDTAVYYCAKYGSSGPYWYFDLWGQGTLVTVSA
VL: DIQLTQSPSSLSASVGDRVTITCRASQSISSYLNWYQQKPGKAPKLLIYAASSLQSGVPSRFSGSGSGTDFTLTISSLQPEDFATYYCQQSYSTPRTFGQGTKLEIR
- 平均荧光强度 (MFI), acidic condition over neutral condition [1]: ~1.5 倍 (fold)
- 平均荧光强度 (MFI), fold over positive control CCT301-38 [2]: ~4 倍 (fold)

B2: Hu001-5抗体 (full-length human IgG1 kappa) (antibody, V domains shown)
VH: QVQLLESGGGVVQPGRSLRLSCAASGFTFSSYGMHWVRQAPGKGLEWVAVISYDGSNKYYADSVKGRFTISRDNSKNTLYLQMNSLRAEDTAVYYCAKDQVLAPVGGGLFDYWGQGTLVTVSA
VL: DIQLTQSPSSLSASVGDRVTITCRASQSISTYLNWYQQKPGKAPESLIFAASSLASGVPSRFSGSGSGTDFTLTISSLQPEDFATYYCQQSYSTPRTFGPGTKVEIK
- 平均荧光强度 (MFI), acidic condition over neutral condition [1]: ~1.5 倍 (fold)
- 平均荧光强度 (MFI), fold over positive control CCT301-38 [2]: ~4 倍 (fold)
